Where two headings read alike, the source gives them in different places.
B1: Anti-CD154 antibody (SLAPH0336a/SLAPL0336a) with Fc variant LALA+EFT (SG1090) (antibody, human IgG1, kappa, L234A L235A)
heavy: EVQLVESGGGSVKPGGSLKLSCAASGFTFSDHYMYWVRQTPEKRLEWVAIISGGGSYTSYPDSMKGRFTISRDNAKNILHLQMSSLKSEDTAMYYCTRESNGKPGFAYWGQGTLVTVSAASTKGPSVFPLAPSSKSTSGGTAALGCLVKDYFPEPVTVSWNSGALTSGVHTFPAVLQSSGLYSLSSVVTVPSSSLGTQTYICNVNHKPSNTKVDKRVEPKSCDKTHTCPPCPAPEAAGGPSVFLFPPKPKDTLMISRTPEVTCVVVDVEFEDPEVKFNWYVDGVEVHNAKTKPREEQYNSTYRVVSVLTVLHQDWLNGKEYKCKVTNKALPAPIEKTISKAKGQPREPQVYTLPPSREEMTKNQVSLTCLVKGFYPSDIAVEWESNGQPENNYKTTPPVLDSDGSFFLYSKLTVDKSRWQQGNVFSCSVMHEALHNHYTQKSLSLSP
light: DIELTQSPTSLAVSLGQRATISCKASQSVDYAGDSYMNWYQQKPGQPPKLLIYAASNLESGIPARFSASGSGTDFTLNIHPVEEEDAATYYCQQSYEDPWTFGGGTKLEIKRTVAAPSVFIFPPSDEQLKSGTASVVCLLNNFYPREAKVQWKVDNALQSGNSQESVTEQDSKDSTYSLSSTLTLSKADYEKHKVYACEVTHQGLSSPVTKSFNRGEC
B2: Anti-CD154 antibody (SLAPH0336a/SLAPL0336a) with Fc variant LALA+KWES (SG1088) (antibody, human IgG1, kappa, L234A L235A)
heavy: EVQLVESGGGSVKPGGSLKLSCAASGFTFSDHYMYWVRQTPEKRLEWVAIISGGGSYTSYPDSMKGRFTISRDNAKNILHLQMSSLKSEDTAMYYCTRESNGKPGFAYWGQGTLVTVSAASTKGPSVFPLAPSSKSTSGGTAALGCLVKDYFPEPVTVSWNSGALTSGVHTFPAVLQSSGLYSLSSVVTVPSSSLGTQTYICNVNHKPSNTKVDKRVEPKSCDKTHTCPPCPAPEAAGGPSVFLFPPKPKDTLMISRTPEVTCVVVDVSHEDPEVKFNWYVDGVEVHNAKTKPREEQYNSTYRVVSVLTVLHQDWLNGKEYKCKVSNWALPAPISKTISKAKGQPREPQVYTLPPSREEMTKNQVSLTCLVKGFYPSDIAVEWESNGQPENNYKTTPPVLDSDGSFFLYSKLTVDKSRWQQGNVFSCSVMHEALHNHYTQKSLSLSP
light: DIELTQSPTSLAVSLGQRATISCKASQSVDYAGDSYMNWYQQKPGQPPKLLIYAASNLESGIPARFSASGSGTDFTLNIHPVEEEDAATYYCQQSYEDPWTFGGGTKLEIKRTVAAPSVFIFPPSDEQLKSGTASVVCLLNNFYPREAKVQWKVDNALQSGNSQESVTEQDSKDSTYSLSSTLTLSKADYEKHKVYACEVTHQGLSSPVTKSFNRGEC
B3: Anti-CD154 antibody (SLAPH0336a/SLAPL0336a) with Fc variant LALA+EFT+AE (SG1089) (antibody, human IgG1, kappa)
heavy: EVQLVESGGGSVKPGGSLKLSCAASGFTFSDHYMYWVRQTPEKRLEWVAIISGGGSYTSYPDSMKGRFTISRDNAKNILHLQMSSLKSEDTAMYYCTRESNGKPGFAYWGQGTLVTVSAASTKGPSVFPLAPSSKSTSGGTAALGCLVKDYFPEPVTVSWNSGALTSGVHTFPAVLQSSGLYSLSSVVTVPSSSLGTQTYICNVNHKPSNTKVDKRVEPKSCDKTHTCPPCPAPEAAAGPSVFLFPPKPKDTLMISRTPEVTCVVVDVEFEDPEVKFNWYVDGVEVHNAKTKPREEQYNSTYRVVSVLTVLHQDWLNGKEYKCKVTNKALPAPEEKTISKAKGQPREPQVYTLPPSREEMTKNQVSLTCLVKGFYPSDIAVEWESNGQPENNYKTTPPVLDSDGSFFLYSKLTVDKSRWQQGNVFSCSVMHEALHNHYTQKSLSLSP
light: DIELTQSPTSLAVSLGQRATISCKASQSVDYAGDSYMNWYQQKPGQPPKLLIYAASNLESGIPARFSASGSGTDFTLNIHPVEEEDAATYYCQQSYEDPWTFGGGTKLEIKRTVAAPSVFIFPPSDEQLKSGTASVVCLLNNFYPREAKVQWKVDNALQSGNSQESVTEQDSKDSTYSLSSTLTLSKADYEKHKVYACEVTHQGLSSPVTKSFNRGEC
B4: EFT+AE (antibody, human IgG1, kappa)
heavy chain: EVQLVESGGGSVKPGGSLKLSCAASGFTFSDHYMYWVRQTPEKRLEWVAIISGGGSYTSYPDSMKGRFTISRDNAKNILHLQMSSLKSEDTAMYYCTRESNGKPGFAYWGQGTLVTVSAASTKGPSVFPLAPSSKSTSGGTAALGCLVKDYFPEPVTVSWNSGALTSGVHTFPAVLQSSGLYSLSSVVTVPSSSLGTQTYICNVNHKPSNTKVDKRVEPKSCDKTHTCPPCPAPELLAGPSVFLFPPKPKDTLMISRTPEVTCVVVDVEFEDPEVKFNWYVDGVEVHNAKTKPREEQYNSTYRVVSVLTVLHQDWLNGKEYKCKVTNKALPAPEEKTISKAKGQPREPQVYTLPPSREEMTKNQVSLTCLVKGFYPSDIAVEWESNGQPENNYKTTPPVLDSDGSFFLYSKLTVDKSRWQQGNVFSCSVMHEALHNHYTQKSLSLSP
light chain: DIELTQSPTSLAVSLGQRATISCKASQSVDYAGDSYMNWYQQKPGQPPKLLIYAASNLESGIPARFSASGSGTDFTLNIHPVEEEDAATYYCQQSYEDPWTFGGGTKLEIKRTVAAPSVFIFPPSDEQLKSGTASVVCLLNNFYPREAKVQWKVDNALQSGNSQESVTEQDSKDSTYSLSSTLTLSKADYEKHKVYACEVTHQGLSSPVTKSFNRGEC
notes: also called Anti-CD154 antibody (SLAPH0336a/SLAPL0336a) with Fc variant EFT+AE (SG1086); SG1086

Columns and labels:
[1] = biological target: T1, mouse FcγRI (mouse, UniProt P26151 25-297); assay: SPR (Biacore T200, pH 7.4, 25 °C): His-tagged FcγR captured by anti-His antibody; antibody injected at 100 nM alone (Ab alone) or as 1:1 complex with trimeric CD154 (CD154 IC); binding level / capture level [A]
T1 construct: also called mFcγRI; mouse FcγR1
T1 sequence: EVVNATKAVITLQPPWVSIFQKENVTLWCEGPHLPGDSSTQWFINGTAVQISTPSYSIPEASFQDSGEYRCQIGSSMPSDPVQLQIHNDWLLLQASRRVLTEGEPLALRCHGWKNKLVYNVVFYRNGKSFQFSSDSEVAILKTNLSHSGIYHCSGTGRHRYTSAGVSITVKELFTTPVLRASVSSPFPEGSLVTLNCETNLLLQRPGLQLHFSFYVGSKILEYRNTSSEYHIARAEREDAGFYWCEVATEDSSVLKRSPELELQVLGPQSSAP

[2] = biological target: T2, mouse FcγRIV (mouse, UniProt A0A0B4J1G0 21-203); assay: SPR (Biacore T200, pH 7.4, 25 °C): His-tagged FcγR captured by anti-His antibody; antibody injected at 100 nM alone (Ab alone) or as 1:1 complex with trimeric CD154 (CD154 IC); binding level / capture level [D]
T2 construct: also called mFcγRIV; mouse FcγR4
T2 sequence: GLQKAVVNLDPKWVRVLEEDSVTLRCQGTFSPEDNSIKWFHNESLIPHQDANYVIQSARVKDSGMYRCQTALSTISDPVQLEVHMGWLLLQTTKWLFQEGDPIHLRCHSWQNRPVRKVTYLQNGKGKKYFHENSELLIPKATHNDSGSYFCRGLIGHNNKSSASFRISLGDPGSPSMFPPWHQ

[3] = biological target: T3, mouse FcγRIII (mouse, UniProt P08508 31-215); assay: SPR (Biacore T200, pH 7.4, 25 °C): His-tagged FcγR captured by anti-His antibody; antibody injected at 100 nM alone (Ab alone) or as 1:1 complex with trimeric CD154 (CD154 IC); binding level / capture level [C]
T3 construct: also called mFcγRIII; mouse FcγR3
T3 chain: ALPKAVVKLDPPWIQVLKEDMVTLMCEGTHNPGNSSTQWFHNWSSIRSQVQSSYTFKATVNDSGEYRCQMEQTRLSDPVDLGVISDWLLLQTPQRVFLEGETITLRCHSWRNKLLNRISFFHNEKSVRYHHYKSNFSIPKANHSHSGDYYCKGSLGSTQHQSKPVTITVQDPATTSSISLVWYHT

[4] = biological target: T4, human C1q (Calbiochem) (human, UniProt P02745 23-245; P02746 28-253; P02747 29-245); assay: ELISA: antibody coated on the plate at the concentration shown, human C1q added, detected with HRP anti-human C1q, OD 450 nm
T4 sequence (P02745 23-245 limits assumed, chain 1 of 3): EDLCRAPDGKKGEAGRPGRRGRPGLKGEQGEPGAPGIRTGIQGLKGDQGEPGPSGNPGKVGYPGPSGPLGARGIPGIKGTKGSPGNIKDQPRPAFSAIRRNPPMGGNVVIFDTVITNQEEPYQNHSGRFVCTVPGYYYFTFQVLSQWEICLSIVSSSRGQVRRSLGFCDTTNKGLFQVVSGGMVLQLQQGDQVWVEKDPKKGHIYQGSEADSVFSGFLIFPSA
T4 sequence (P02746 28-253 limits assumed, chain 2 of 3): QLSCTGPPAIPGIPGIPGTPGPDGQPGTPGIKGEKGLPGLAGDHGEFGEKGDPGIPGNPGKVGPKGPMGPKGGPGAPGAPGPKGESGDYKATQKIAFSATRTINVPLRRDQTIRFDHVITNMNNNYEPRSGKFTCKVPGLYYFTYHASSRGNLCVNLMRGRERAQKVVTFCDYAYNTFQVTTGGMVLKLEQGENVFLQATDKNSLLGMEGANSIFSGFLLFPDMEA
T4 sequence (P02747 29-245 limits assumed, chain 3 of 3): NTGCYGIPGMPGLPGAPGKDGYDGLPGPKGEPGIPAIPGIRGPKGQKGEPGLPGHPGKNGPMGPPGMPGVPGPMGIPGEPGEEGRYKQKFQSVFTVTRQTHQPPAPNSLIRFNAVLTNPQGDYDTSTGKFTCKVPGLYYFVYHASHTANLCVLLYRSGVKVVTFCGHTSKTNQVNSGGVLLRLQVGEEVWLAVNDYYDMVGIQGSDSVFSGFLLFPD

[5] = biological target: T5, human FcγRIa (human, UniProt P12314 16-292); assay: SPR (Biacore T200, pH 7.4, 25 °C): His-tagged FcγR captured by anti-His antibody; antibody injected at 100 nM alone (Ab alone) or as 1:1 complex with trimeric CD154 (CD154 IC); binding level / capture level [A]
T5 construct: also called human FcγR1a
T5 sequence (P12314 16-292 limits assumed): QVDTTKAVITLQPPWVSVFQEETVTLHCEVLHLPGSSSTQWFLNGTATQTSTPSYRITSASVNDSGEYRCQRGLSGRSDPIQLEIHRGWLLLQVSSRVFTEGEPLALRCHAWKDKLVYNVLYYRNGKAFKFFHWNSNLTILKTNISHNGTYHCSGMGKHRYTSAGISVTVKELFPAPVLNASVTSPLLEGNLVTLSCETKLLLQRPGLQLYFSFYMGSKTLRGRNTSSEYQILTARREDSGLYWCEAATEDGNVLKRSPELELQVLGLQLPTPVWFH

[6] = biological target: T6, human FcγRIIIb (NA1) (human, UniProt O75015 17-200); assay: SPR (Biacore T200, pH 7.4, 25 °C): His-tagged FcγR captured by anti-His antibody; antibody injected at 100 nM alone (Ab alone) or as 1:1 complex with trimeric CD154 (CD154 IC); binding level / capture level [G]
T6 construct: also called human FcγR3b allelic variant NA1
T6 chain: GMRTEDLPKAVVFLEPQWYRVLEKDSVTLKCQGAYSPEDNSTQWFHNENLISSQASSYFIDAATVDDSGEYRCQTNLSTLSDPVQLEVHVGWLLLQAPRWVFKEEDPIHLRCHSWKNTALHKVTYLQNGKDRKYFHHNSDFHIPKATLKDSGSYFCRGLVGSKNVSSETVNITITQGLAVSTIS

[7] = biological target: T7, human FcγRIIIa (158F) (human, UniProt P08637 17-208); assay: SPR (Biacore T200, pH 7.4, 25 °C): His-tagged FcγR captured by anti-His antibody; antibody injected at 100 nM alone (Ab alone) or as 1:1 complex with trimeric CD154 (CD154 IC); binding level / capture level [E]
T7 construct: also called human FcγR3a allelic variant 158F

[8] = biological target: T8, human FcγRIIb (human, UniProt P31994 43-217); assay: SPR (Biacore T200, pH 7.4, 25 °C): His-tagged FcγR captured by anti-His antibody; antibody injected at 100 nM alone (Ab alone) or as 1:1 complex with trimeric CD154 (CD154 IC); binding level / capture level [D]
T8 construct: also called human FcγR2b
T8 sequence: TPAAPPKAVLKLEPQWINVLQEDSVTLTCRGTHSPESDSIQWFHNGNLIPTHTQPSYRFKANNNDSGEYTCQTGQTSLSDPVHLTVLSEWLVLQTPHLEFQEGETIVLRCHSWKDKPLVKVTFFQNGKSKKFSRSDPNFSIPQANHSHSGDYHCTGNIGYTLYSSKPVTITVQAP

[9] = biological target: T9, human FcγRIIIa (158V) (human, UniProt P08637 17-208); assay: SPR (Biacore T200, pH 7.4, 25 °C): His-tagged FcγR captured by anti-His antibody; antibody injected at 100 nM alone (Ab alone) or as 1:1 complex with trimeric CD154 (CD154 IC); binding level / capture level [F]
T9 construct: also called human FcγR3a allelic variant 158V

[10] = biological target: T10, human FcγRIIIb (NA2) (human, UniProt O75015 17-200); assay: SPR (Biacore T200, pH 7.4, 25 °C): His-tagged FcγR captured by anti-His antibody; antibody injected at 100 nM alone (Ab alone) or as 1:1 complex with trimeric CD154 (CD154 IC); binding level / capture level [H]
T10 construct: also called human FcγR3b allelic variant NA2
T10 chain: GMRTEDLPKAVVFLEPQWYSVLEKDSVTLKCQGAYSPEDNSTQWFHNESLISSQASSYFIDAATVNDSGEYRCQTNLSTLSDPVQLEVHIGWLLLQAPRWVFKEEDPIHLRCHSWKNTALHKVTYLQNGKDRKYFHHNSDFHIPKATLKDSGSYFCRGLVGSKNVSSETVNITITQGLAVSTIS

[11] = biological target: T4, human C1q (Calbiochem); assay: ELISA: antibody coated on the plate at the concentration shown, human C1q added, detected with HRP anti-human C1q, OD 450 nm; remark: listed apart in the source
[12] = biological target: T11, mouse FcγRIIb (mouse, UniProt P08101 30-210); assay: SPR (Biacore T200, pH 7.4, 25 °C): His-tagged FcγR captured by anti-His antibody; antibody injected at 100 nM alone (Ab alone) or as 1:1 complex with trimeric CD154 (CD154 IC); binding level / capture level [B]
T11 construct: also called mFcγRIIb; mouse FcγR2b
T11 sequence: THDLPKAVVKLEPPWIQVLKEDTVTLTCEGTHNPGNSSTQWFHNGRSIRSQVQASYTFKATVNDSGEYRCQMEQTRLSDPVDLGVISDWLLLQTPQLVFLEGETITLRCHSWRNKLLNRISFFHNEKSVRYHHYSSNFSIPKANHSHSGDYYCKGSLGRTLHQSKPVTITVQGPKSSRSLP

Binder | binding result [1] | binding result [2] | binding result [3] | EC50 (read off the curve) [4] | binding result [5] | binding result [6] | binding result [7] | binding result [8] | binding result [9] | binding result [10] | EC50 (read off the curve) [11] | binding result [12]
B1 | no binding (tested: 100 nM) | no binding (tested: 100 nM) | binds | ~2 µg/mL | binds | no binding (tested: 100 nM) | no binding (tested: 100 nM) | binds | binds | no binding (tested: 100 nM) | – | –
B2 | – | – | – | ~2 µg/mL | binds | – | – | – | – | – | ~3 µg/mL | –
B3 | no binding (tested: 100 nM) | binds | binds | ~3 µg/mL | binds | no binding (tested: 100 nM) | – | binds | binds | – | – | –
B4 | binds | binds | binds | – | binds | – | binds | binds | binds | binds | – | binds

Source: patent US20190218277A1 (Chugai, published 2019)
